In US20260242419A1, “A CYCLIC PEPTIDE FOR TRAPPING INTERLEUKIN-1 BETA” (Merck Sharp & Dohme LLC, priority 2023, published 2026):
Starred links: 1 amine or outer side, 2 acyl side, 3 side chain; linkers in the order of their positions; H or OH if unused. Non-standard residues stand in square brackets, D forms with d. dProc3CH2Pyrim = (2R,3S)-3-(pyrimidin-5-ylmethyl)pyrrolidine-2-carboxylic acid, O=C([C@H]1[C@@H](Cc2cncnc2)CCN1[*:1])[*:2]; dProc3Bn = (2R,3S)-3-benzylpyrrolidine-2-carboxylic acid, O=C([C@H]1[C@@H](Cc2ccccc2)CCN1[*:1])[*:2]; dProc4Bn = (2R,4R)-4-benzylpyrrolidine-2-carboxylic acid, O=C([C@H]1C[C@@H](Cc2ccccc2)CN1[*:1])[*:2]; Phe(4-(5-CO2H-2-pyrimidyl)) = N[C@@H](Cc1ccc(-c2ncc(C(=O)O)cn2)cc1)C(=O)O; Phe(4-(4-Ac-piperazinyl)) = CC(=O)N1CCN(c2ccc(C[C@H](N)C(=O)O)cc2)CC1; Trp(βS-Me,4-F) = C[C@@H](c1c[nH]c2cccc(F)c12)[C@H](N)C(=O)O; Bip(4'-COOH) = N[C@@H](Cc1ccc(-c2ccc(C(=O)O)cc2)cc1)C(=O)O; dPro(4R-Bzl(4-F)) = O=C(O)[C@H]1C[C@@H](Cc2ccc(F)cc2)CN1; Ala(pyrimidin-5-yl) = N[C@@H](Cc1cncnc1)C(=O)O; Phe(4-COOH) = N[C@@H](Cc1ccc(C(=O)O)cc1)C(=O)O; Pro(cis-4-F) = O=C(O)[C@@H]1C[C@H](F)CN1; 2Pal = N[C@@H](Cc1ccccn1)C(=O)O; 3Pal = N[C@@H](Cc1cccnc1)C(=O)O; 4Pal = N[C@@H](Cc1ccncc1)C(=O)O; Dab = NCC[C@H](N)C(=O)O; Aib = CC(C)(N)C(=O)O

B1: SEQ ID NO: 27 (peptide)
peptide: cyclo([Bip(4'-COOH)][4Pal][Phe(4-COOH)]G[Pro(cis-4-F)][Trp(βS-Me,4-F)][Aib]EW[Aib]FQSG[dProc3CH2Pyrim])
SMILES: C[C@@H](c1c[nH]c2cccc(F)c12)[C@@H]1NC(=O)[C@@H]2C[C@H](F)CN2C(=O)CNC(=O)[C@H](Cc2ccc(C(=O)O)cc2)NC(=O)[C@H](Cc2ccncc2)NC(=O)[C@H](Cc2ccc(-c3ccc(C(=O)O)cc3)cc2)NC(=O)[C@H]2[C@@H](Cc3cncnc3)CCN2C(=O)CNC(=O)[C@H](CO)NC(=O)[C@H](CCC(N)=O)NC(=O)[C@H](Cc2ccccc2)NC(=O)C(C)(C)NC(=O)[C@H](Cc2c[nH]c3ccccc23)NC(=O)[C@H](CCC(=O)O)NC(=O)C(C)(C)NC1=O
B2: SEQ ID NO: 32 (peptide)
peptide: cyclo([Bip(4'-COOH)][4Pal][Phe(4-COOH)]G[Pro(cis-4-F)][Trp(βS-Me,4-F)][Aib]EW[Aib]RQSG[dPro(4R-Bzl(4-F))])
SMILES: C[C@@H](c1c[nH]c2cccc(F)c12)[C@@H]1NC(=O)[C@@H]2C[C@H](F)CN2C(=O)CNC(=O)[C@H](Cc2ccc(C(=O)O)cc2)NC(=O)[C@H](Cc2ccncc2)NC(=O)[C@H](Cc2ccc(-c3ccc(C(=O)O)cc3)cc2)NC(=O)[C@H]2C[C@@H](Cc3ccc(F)cc3)CN2C(=O)CNC(=O)[C@H](CO)NC(=O)[C@H](CCC(N)=O)NC(=O)[C@H](CCCNC(=N)N)NC(=O)C(C)(C)NC(=O)[C@H](Cc2c[nH]c3ccccc23)NC(=O)[C@H](CCC(=O)O)NC(=O)C(C)(C)NC1=O
B3: SEQ ID NO: 37 (peptide)
peptide: cyclo([Phe(4-(4-Ac-piperazinyl))][4Pal][Phe(4-COOH)]G[Pro(cis-4-F)][Trp(βS-Me,4-F)][Aib]EW[Aib][Ala(pyrimidin-5-yl)]Q[Dab]G[dPro(4R-Bzl(4-F))])
SMILES: CC(=O)N1CCN(c2ccc(C[C@@H]3NC(=O)[C@H]4C[C@@H](Cc5ccc(F)cc5)CN4C(=O)CNC(=O)[C@H](CCN)NC(=O)[C@H](CCC(N)=O)NC(=O)[C@H](Cc4cncnc4)NC(=O)C(C)(C)NC(=O)[C@H](Cc4c[nH]c5ccccc45)NC(=O)[C@H](CCC(=O)O)NC(=O)C(C)(C)NC(=O)[C@H]([C@@H](C)c4c[nH]c5cccc(F)c45)NC(=O)[C@@H]4C[C@H](F)CN4C(=O)CNC(=O)[C@H](Cc4ccc(C(=O)O)cc4)NC(=O)[C@H](Cc4ccncc4)NC3=O)cc2)CC1
B4: SEQ ID NO: 35 (peptide)
peptide: cyclo([Bip(4'-COOH)][4Pal][Phe(4-COOH)]G[Pro(cis-4-F)][Trp(βS-Me,4-F)][Aib]EW[Aib]FQRG[dPro(4R-Bzl(4-F))])
SMILES: C[C@@H](c1c[nH]c2cccc(F)c12)[C@@H]1NC(=O)[C@@H]2C[C@H](F)CN2C(=O)CNC(=O)[C@H](Cc2ccc(C(=O)O)cc2)NC(=O)[C@H](Cc2ccncc2)NC(=O)[C@H](Cc2ccc(-c3ccc(C(=O)O)cc3)cc2)NC(=O)[C@H]2C[C@@H](Cc3ccc(F)cc3)CN2C(=O)CNC(=O)[C@H](CCCNC(=N)N)NC(=O)[C@H](CCC(N)=O)NC(=O)[C@H](Cc2ccccc2)NC(=O)C(C)(C)NC(=O)[C@H](Cc2c[nH]c3ccccc23)NC(=O)[C@H](CCC(=O)O)NC(=O)C(C)(C)NC1=O
B5: SEQ ID NO: 31 (peptide)
peptide: cyclo([Bip(4'-COOH)][4Pal][Phe(4-COOH)]G[Pro(cis-4-F)][Trp(βS-Me,4-F)][Aib]EW[Aib][Ala(pyrimidin-5-yl)]Q[Dab]G[dProc4Bn])
SMILES: C[C@@H](c1c[nH]c2cccc(F)c12)[C@@H]1NC(=O)[C@@H]2C[C@H](F)CN2C(=O)CNC(=O)[C@H](Cc2ccc(C(=O)O)cc2)NC(=O)[C@H](Cc2ccncc2)NC(=O)[C@H](Cc2ccc(-c3ccc(C(=O)O)cc3)cc2)NC(=O)[C@H]2C[C@@H](Cc3ccccc3)CN2C(=O)CNC(=O)[C@H](CCN)NC(=O)[C@H](CCC(N)=O)NC(=O)[C@H](Cc2cncnc2)NC(=O)C(C)(C)NC(=O)[C@H](Cc2c[nH]c3ccccc23)NC(=O)[C@H](CCC(=O)O)NC(=O)C(C)(C)NC1=O
B6: SEQ ID NO: 3 (peptide)
peptide: cyclo([Bip(4'-COOH)][4Pal][Phe(4-COOH)]G[Pro(cis-4-F)][Trp(βS-Me,4-F)][Aib]EW[Aib][Ala(pyrimidin-5-yl)]QSG[dPro(4R-Bzl(4-F))])
SMILES: C[C@@H](c1c[nH]c2cccc(F)c12)[C@@H]1NC(=O)[C@@H]2C[C@H](F)CN2C(=O)CNC(=O)[C@H](Cc2ccc(C(=O)O)cc2)NC(=O)[C@H](Cc2ccncc2)NC(=O)[C@H](Cc2ccc(-c3ccc(C(=O)O)cc3)cc2)NC(=O)[C@H]2C[C@@H](Cc3ccc(F)cc3)CN2C(=O)CNC(=O)[C@H](CO)NC(=O)[C@H](CCC(N)=O)NC(=O)[C@H](Cc2cncnc2)NC(=O)C(C)(C)NC(=O)[C@H](Cc2c[nH]c3ccccc23)NC(=O)[C@H](CCC(=O)O)NC(=O)C(C)(C)NC1=O
B7: SEQ ID NO: 34 (peptide)
peptide: cyclo([Bip(4'-COOH)][4Pal][Phe(4-COOH)]G[Pro(cis-4-F)][Trp(βS-Me,4-F)][Aib]EW[Aib][3Pal]QSG[dPro(4R-Bzl(4-F))])
SMILES: C[C@@H](c1c[nH]c2cccc(F)c12)[C@@H]1NC(=O)[C@@H]2C[C@H](F)CN2C(=O)CNC(=O)[C@H](Cc2ccc(C(=O)O)cc2)NC(=O)[C@H](Cc2ccncc2)NC(=O)[C@H](Cc2ccc(-c3ccc(C(=O)O)cc3)cc2)NC(=O)[C@H]2C[C@@H](Cc3ccc(F)cc3)CN2C(=O)CNC(=O)[C@H](CO)NC(=O)[C@H](CCC(N)=O)NC(=O)[C@H](Cc2cccnc2)NC(=O)C(C)(C)NC(=O)[C@H](Cc2c[nH]c3ccccc23)NC(=O)[C@H](CCC(=O)O)NC(=O)C(C)(C)NC1=O
B8: SEQ ID NO: 30 (peptide)
peptide: cyclo([Bip(4'-COOH)][4Pal][Phe(4-COOH)]G[Pro(cis-4-F)][Trp(βS-Me,4-F)][Aib]EW[Aib][Ala(pyrimidin-5-yl)]QSG[dProc4Bn])
SMILES: C[C@@H](c1c[nH]c2cccc(F)c12)[C@@H]1NC(=O)[C@@H]2C[C@H](F)CN2C(=O)CNC(=O)[C@H](Cc2ccc(C(=O)O)cc2)NC(=O)[C@H](Cc2ccncc2)NC(=O)[C@H](Cc2ccc(-c3ccc(C(=O)O)cc3)cc2)NC(=O)[C@H]2C[C@@H](Cc3ccccc3)CN2C(=O)CNC(=O)[C@H](CO)NC(=O)[C@H](CCC(N)=O)NC(=O)[C@H](Cc2cncnc2)NC(=O)C(C)(C)NC(=O)[C@H](Cc2c[nH]c3ccccc23)NC(=O)[C@H](CCC(=O)O)NC(=O)C(C)(C)NC1=O
B9: SEQ ID NO: 33 (peptide)
peptide: cyclo([Bip(4'-COOH)][4Pal][Phe(4-COOH)]G[Pro(cis-4-F)][Trp(βS-Me,4-F)][Aib]EW[Aib]RQ[Dab]G[dPro(4R-Bzl(4-F))])
SMILES: C[C@@H](c1c[nH]c2cccc(F)c12)[C@@H]1NC(=O)[C@@H]2C[C@H](F)CN2C(=O)CNC(=O)[C@H](Cc2ccc(C(=O)O)cc2)NC(=O)[C@H](Cc2ccncc2)NC(=O)[C@H](Cc2ccc(-c3ccc(C(=O)O)cc3)cc2)NC(=O)[C@H]2C[C@@H](Cc3ccc(F)cc3)CN2C(=O)CNC(=O)[C@H](CCN)NC(=O)[C@H](CCC(N)=O)NC(=O)[C@H](CCCNC(=N)N)NC(=O)C(C)(C)NC(=O)[C@H](Cc2c[nH]c3ccccc23)NC(=O)[C@H](CCC(=O)O)NC(=O)C(C)(C)NC1=O
B10: SEQ ID NO: 36 (peptide)
peptide: cyclo([Bip(4'-COOH)][4Pal][Phe(4-COOH)]G[Pro(cis-4-F)][Trp(βS-Me,4-F)][Aib]EW[Aib][2Pal]QSG[dPro(4R-Bzl(4-F))])
SMILES: C[C@@H](c1c[nH]c2cccc(F)c12)[C@@H]1NC(=O)[C@@H]2C[C@H](F)CN2C(=O)CNC(=O)[C@H](Cc2ccc(C(=O)O)cc2)NC(=O)[C@H](Cc2ccncc2)NC(=O)[C@H](Cc2ccc(-c3ccc(C(=O)O)cc3)cc2)NC(=O)[C@H]2C[C@@H](Cc3ccc(F)cc3)CN2C(=O)CNC(=O)[C@H](CO)NC(=O)[C@H](CCC(N)=O)NC(=O)[C@H](Cc2ccccn2)NC(=O)C(C)(C)NC(=O)[C@H](Cc2c[nH]c3ccccc23)NC(=O)[C@H](CCC(=O)O)NC(=O)C(C)(C)NC1=O
B11: SEQ ID NO: 29 (peptide)
peptide: cyclo([Bip(4'-COOH)][4Pal][Phe(4-COOH)]G[Pro(cis-4-F)][Trp(βS-Me,4-F)][Aib]EW[Aib][Ala(pyrimidin-5-yl)]Q[Dab]G[dProc3Bn])
B12: SEQ ID NO: 38 (peptide)
peptide: cyclo([Phe(4-(5-CO2H-2-pyrimidyl))][4Pal][Phe(4-COOH)]G[Pro(cis-4-F)][Trp(βS-Me,4-F)][Aib]EW[Aib][Ala(pyrimidin-5-yl)]Q[Dab]G[dPro(4R-Bzl(4-F))])
SMILES: C[C@@H](c1c[nH]c2cccc(F)c12)[C@@H]1NC(=O)[C@@H]2C[C@H](F)CN2C(=O)CNC(=O)[C@H](Cc2ccc(C(=O)O)cc2)NC(=O)[C@H](Cc2ccncc2)NC(=O)[C@H](Cc2ccc(-c3ncc(C(=O)O)cn3)cc2)NC(=O)[C@H]2C[C@@H](Cc3ccc(F)cc3)CN2C(=O)CNC(=O)[C@H](CCN)NC(=O)[C@H](CCC(N)=O)NC(=O)[C@H](Cc2cncnc2)NC(=O)C(C)(C)NC(=O)[C@H](Cc2c[nH]c3ccccc23)NC(=O)[C@H](CCC(=O)O)NC(=O)C(C)(C)NC1=O
B13: SEQ ID NO: 28 (peptide)
peptide: cyclo([Bip(4'-COOH)][4Pal][Phe(4-COOH)]G[Pro(cis-4-F)][Trp(βS-Me,4-F)][Aib]EW[Aib][Ala(pyrimidin-5-yl)]QSG[dProc3Bn])
SMILES: C[C@@H](c1c[nH]c2cccc(F)c12)[C@@H]1NC(=O)[C@@H]2C[C@H](F)CN2C(=O)CNC(=O)[C@H](Cc2ccc(C(=O)O)cc2)NC(=O)[C@H](Cc2ccncc2)NC(=O)[C@H](Cc2ccc(-c3ccc(C(=O)O)cc3)cc2)NC(=O)[C@H]2[C@@H](Cc3ccccc3)CCN2C(=O)CNC(=O)[C@H](CO)NC(=O)[C@H](CCC(N)=O)NC(=O)[C@H](Cc2cncnc2)NC(=O)C(C)(C)NC(=O)[C@H](Cc2c[nH]c3ccccc23)NC(=O)[C@H](CCC(=O)O)NC(=O)C(C)(C)NC1=O

target: Recombinant human IL-1β (BioLegend 579404) (human, UniProt P01584 117-269); assay: cell-based or functional assay

Question: Which “MRC5 IC50” value does the source give for B1 here?
Answer: The value was 98 pM.

Question: Which “MRC5 IC50” value does the source give for B2 here?
Answer: Its value is 49 pM.

Question: For B3, which “MRC5 IC50” value is on record?
Answer: Its value is 33 pM.

Question: How did the “MRC5 IC50” value turn out when B4 was run?
Answer: Its value is 49 pM.

Question: B5 was tested. Which “MRC5 IC50” value did it give?
Answer: Its value is 24 pM.

Question: How did the “MRC5 IC50” value turn out when B6 was run?
Answer: Its value is 37 pM.

Question: For B7, which “MRC5 IC50” value is on record?
Answer: Its value is 32 pM.

Question: How did the “MRC5 IC50” value turn out when B8 was run?
Answer: Its value is 26 pM.

Question: How did the “MRC5 IC50” value turn out when B9 was run?
Answer: Its value is 33 pM.

Question: How did the “MRC5 IC50” value turn out when B10 was run?
Answer: Its value is 54 pM.

Question: With B11 as the binder, how does the “MRC5 IC50” value read?
Answer: Its value is 19 pM.

Question: With B12 as the binder, how does the “MRC5 IC50” value read?
Answer: Its value is 41 pM.

Question: Which “MRC5 IC50” value does the source give for B13 here?
Answer: Its value is 23 pM.
